Experimental data reported in patent US20110274721A1.

Target: gp140ΔCFI B(C-HR2) ext 2F5 (HIV-1 strain HXB2 (clade B); HIV-1 strain BaL (clade B); HIV-1; HIV-1 strain 97ZA012 (clade C)) (UniProt P04578)
Experiment: ELISA on Env from transfected 293 cells

monoclonal antibody 2F5 was tested, and the fold higher reactivity than the parental clade B gp140ΔCFI was 20 to 30 fold.
